Data: publication PMC10497535, “Identification of the SNARE complex that mediates the fusion of multivesicular bodies with the plasma membrane in exosome secretion” (Journal of Extracellular Vesicles, 2023)

Experiments:
[1] = molecular target: T1, recombinant SN-23, mutant of full-length human SNAP-23 (C79A, C80A, C83A, C85A, C87A, C112A) (human, UniProt O00161 1-211, C79A | C80A | C83A | C85A | C87A | C112A); assay: pull-down; 2 μM GST-VAMP-7 SNARE motif with 3 μM Syx-4 (1-274) and/or 3 μM SN-23 on glutathione Sepharose 4B, 4°C, 5 h; washed with 20 mM Tris-HCl pH 8.0, 150 mM NaCl, 1% Triton X-100; SDS-PAGE; details: both partners purified
T1 construct: SNAP-23, human, full length (residues 1-211) with six cysteines changed to alanine; Cloned into pET28a; source: E. coli BL21 DE3, purified (Nickel-NTA)
T1 sequence (looked up): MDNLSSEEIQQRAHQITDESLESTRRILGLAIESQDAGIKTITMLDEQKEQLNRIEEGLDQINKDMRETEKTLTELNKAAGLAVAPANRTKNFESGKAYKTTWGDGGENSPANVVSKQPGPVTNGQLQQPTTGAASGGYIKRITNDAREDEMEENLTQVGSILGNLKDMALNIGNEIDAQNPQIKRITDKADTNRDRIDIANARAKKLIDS

[2] = molecular target: T2, Syx-4 (residues 1-274, the cytoplasmic fragment) (human, UniProt Q12846 1-274); assay: as above; details: both partners purified
T2 construct: syntaxin-4, human, cytoplasmic fragment, residues 1-274; Cloned into pET28a; 'purified as previously described'; also called cytoplasmic fragment of Syx-4; source: E. coli BL21 DE3, purified (Nickel-NTA)

B1: GST-tagged VAMP-7 SNARE motif (residues 125-185) (domain or fragment, human, UniProt P51809 125-185, looked up)
chain: KVMETQAQVDELKGIMVRNIDLVAQRGERLELLIDKTENLVDSSVTFKTTSRNLARAMCMK
notes: pGEX-6p-1; PreScission-cleavable GST tag, not cleaved for the pull-down; also called GST-VAMP-7 SNARE motif; source: E. coli BL21 DE3, purified (glutathione Sepharose 4B, eluted with glutathione); not shown: GST, N-terminal, kept
B1: binds [1]; binds [2].
